Measurements taken from patent US20200017592A1 (Regeneron, published 2020).

T1: full-length human IL-36R on cells (human, UniProt Q9HB29 20-575)
T1 sequence (looked up): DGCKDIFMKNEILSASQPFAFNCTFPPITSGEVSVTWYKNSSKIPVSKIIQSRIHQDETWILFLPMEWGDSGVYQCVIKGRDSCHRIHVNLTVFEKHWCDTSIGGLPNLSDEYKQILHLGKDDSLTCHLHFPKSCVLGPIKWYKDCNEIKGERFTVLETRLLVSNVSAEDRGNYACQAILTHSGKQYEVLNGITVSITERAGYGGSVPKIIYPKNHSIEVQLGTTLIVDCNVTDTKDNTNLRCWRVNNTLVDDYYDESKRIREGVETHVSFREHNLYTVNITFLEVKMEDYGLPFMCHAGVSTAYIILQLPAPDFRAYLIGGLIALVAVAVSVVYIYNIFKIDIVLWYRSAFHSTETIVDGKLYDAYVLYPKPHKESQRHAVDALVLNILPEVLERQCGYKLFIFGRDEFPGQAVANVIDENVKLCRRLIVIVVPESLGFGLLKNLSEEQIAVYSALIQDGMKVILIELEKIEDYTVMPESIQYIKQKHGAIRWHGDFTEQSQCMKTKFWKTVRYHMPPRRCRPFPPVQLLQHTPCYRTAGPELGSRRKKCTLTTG

T2: Macaca fascicularis IL-36R on cells (Macaca fascicularis, UniProt A0A2K5WSK9 20-558)
T2 sequence: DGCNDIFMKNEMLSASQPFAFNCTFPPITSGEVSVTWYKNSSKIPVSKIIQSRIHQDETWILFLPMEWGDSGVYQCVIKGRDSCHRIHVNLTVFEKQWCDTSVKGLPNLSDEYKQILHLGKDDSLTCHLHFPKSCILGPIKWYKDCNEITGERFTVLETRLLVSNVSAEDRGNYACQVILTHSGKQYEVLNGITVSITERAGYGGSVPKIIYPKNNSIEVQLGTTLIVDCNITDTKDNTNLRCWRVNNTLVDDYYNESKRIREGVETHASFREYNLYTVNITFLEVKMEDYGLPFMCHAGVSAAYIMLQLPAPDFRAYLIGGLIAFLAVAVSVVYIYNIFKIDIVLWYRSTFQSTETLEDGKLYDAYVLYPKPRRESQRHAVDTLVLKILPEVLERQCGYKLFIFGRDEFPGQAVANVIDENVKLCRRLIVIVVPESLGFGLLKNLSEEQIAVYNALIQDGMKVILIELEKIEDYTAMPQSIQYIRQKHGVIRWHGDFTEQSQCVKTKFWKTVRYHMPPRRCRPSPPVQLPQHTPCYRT

B1: H4H14758P (antibody, human IgG4 S228P, kappa, V domains shown)
VH: EVQLVESGGGLVQPGRSLRLSCAASGFTFDDYAMHWVRQAPGKGLEWVSSVRWNGGIIGYADSVKGRFTISRDNAKNSLYLQMNSLRPEDTALYYCAKDIGDVLTGYYGEYGMDVWGQGTTVTVSS
VL: DIQMTQSPSSLSASVGDRVTIACRASQSITTYLNWYQQKPGKAPKLLIYAASSLQSGVPSRFSGSGSGTDFTLTISSLQPEDFATYYCQQSYISPYTFGQGTKLEIKR
B2: H4H14709P (antibody, human IgG4 S228P, kappa, V domains shown)
VH: EVQLVESGGGLVQPGGSLRLSCAASGFTFSDYAMSWVRQAPGKGLEWVSGISGNGGDTYYGDFVKGRFTISRDNSKNTLYLQMNSLRGEDTAAYFCVIDLDYWGQGTLVTVSS
VL: DIQMTQSPSTLSASEGDRVTITCRASQSISSWLAWYQQKPGKAPRLLIYKASILGDGVPSRFSGSGSGTEFTLTISSLQPDDFATYYCHQYNSYLWTFGQGTKVEIKR
B3: H4H14699P2 (antibody, human IgG4 S228P, kappa, V domains shown)
VH: EVQLVESGGGLVQPGRSLRLSCAASGFTFDDYAIHWVRQAPGKGLEWVSVISWNSDIIGYADSVKGRFTVSRDNAKNSLYLQMNSLRTEDTALYYCAKGYNWNFFDYWGQGTLVTVSS
VL: EIVLTQSPATLSLSPGERATLSCRASQSVSSYLAWYQQKPGQAPRLLIYNAANRATDIPARFSGSGSGTDFTLTISSLEPEDFAVYYCQQRSNWPLTFGGGTKVEIKR
notes: Fully human anti-IL-36R antibody

Key:
[1] = target: T3, recombinant human IL-36R extracellular domain expressed with a C-terminal myc-myc-hexahistidine tag (human, UniProt Q9HB29 20-337); experiment: SPR (Biacore 4000), mAb captured on anti-human Fc, 37°C
T3 construct: also called hIL-36R-MMH; hIL-36R.mmH
T3 sequence (Q9HB29 other isoform, or with tags, fused parts or gaps limits assumed): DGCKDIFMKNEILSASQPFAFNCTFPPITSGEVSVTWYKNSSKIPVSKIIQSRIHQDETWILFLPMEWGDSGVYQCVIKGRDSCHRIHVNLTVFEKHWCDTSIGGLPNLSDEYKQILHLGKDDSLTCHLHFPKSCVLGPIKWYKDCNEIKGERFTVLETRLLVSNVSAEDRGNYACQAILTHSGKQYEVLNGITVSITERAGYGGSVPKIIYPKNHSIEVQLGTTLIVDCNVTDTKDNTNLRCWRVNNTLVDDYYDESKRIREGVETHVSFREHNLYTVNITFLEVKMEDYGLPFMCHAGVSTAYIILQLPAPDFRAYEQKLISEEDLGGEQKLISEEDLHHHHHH
Procedure: (§1) Equilibrium dissociation constants (KD values) for IL-36R binding to purified anti-IL-36R antibodies were determined using a real-time surface plasmon resonance biosensor using a Biacore 4000 instrument. The Biacore sensor surface was first derivatized by amine coupling with a monoclonal mouse anti-human Fc antibody (GE, # BR-1008-39) to capture anti-IL-36R monoclonal antibodies. All binding studies were performed in 0.01 M Hepes pH 7.4, 0.15 M NaCl, 3 mM EDTA, and 0.05% v/v Surfactant Tween-20 (HBS-ET running buffer) at 25° C. and 37° C. Different concentrations of IL-36R reagents, human IL-36R extracellular domain expressed with a C-terminal myc-myc-hexahistidine tag (hIL-36R-MMH), Macaca fascicularis IL-36R extracellular domain expressed with a C-terminal myc-myc-hexahistidine tag (mfIL-36R-MMH: mROR1 signal sequence (M1-A29). Macaca fascicularis IL36R_ecto domain (D20-A336).mycmycHis6), human IL-36R extracellular domain expressed with a C-terminal mouse IgG2a Fc tag (hIL-36R-mFc: mROR1 signal sequence (M1-A29)-human IL36R (D20-Y337)-mouse IgG2aFc (E98-K330)) or an in-line fusion protein of human IL-36R extracellular domain and IL1RAcP extracellular domain expressed with mouse IgG2a Fc tag (hIL-36R-Trap-mFc: mROR1 signal sequence (M1-A29)-human IL36R ecto domain (D20-Y337)-human IL1RacP ecto domain(S21-E359)-mouse IgG2aFc) in HBS-ET running buffer (ranging from 100 nM to 3.7 nM, 3-fold dilutions) were injected over the anti-IL-36R antibody captured surface for 4 minutes at a flow rate of 30 μL/minute and their dissociation in HBS-ET running buffer was monitored for 10 minutes. Kinetic association rate constant (kₐ) and dissociation rate constant (kd) were determined by fitting the real-time sensorgrams to a 1:1 binding model using Scrubber 2.0c curve fitting software. Binding dissociation equilibrium constants (KD) and dissociative half-lives (t_{1/2}) were calculated from the kinetic rate constants as: […]

[2] = target: T1, full-length human IL-36R on cells; experiment: cell-based or functional assay
[3] = target: T3, recombinant human IL-36R extracellular …; experiment: SPR (Biacore 4000), mAb captured on anti-human Fc, 25°C
Procedure: as §1

[4] = target: T2, Macaca fascicularis IL-36R on cells; experiment: cell-based or functional assay

| 100 nM hIL-36R-MMH Bound (RU) [1] [RU] | Kd [1] [nM] | koff [1] [s⁻¹] | kon [1] [M⁻¹ s⁻¹] | t½ [1] [min] | IC50 [M], NFκB-luciferase, 10 pM hIL-36γ [2] [M] | IC50 [M], NFκB-luciferase, 20 pM hIL-36α [2] [M] | Max Inhibition (%), NFκB-luciferase, 10 pM hIL-36γ [2] [%] | Max Inhibition (%), NFκB-luciferase, 20 pM hIL-36α [2] [%] | 100 nM hIL-36R-MMH Bound (RU) [3] [RU] | Kd [3] [nM] | koff [3] [s⁻¹] | kon [3] [M⁻¹ s⁻¹] | t½ [3] [min] | other results | Binder |
| --- | --- | --- | --- | --- | --- | --- | --- | --- | --- | --- | --- | --- | --- | --- | --- |
| 111 | 15 | 0.00237 | 158000 | 5 | 1.6e-10 | 1.2e-10 | 57 | 100 | 87 | 7.63 | 0.000923 | 121000 | 13 |  | B1 |
| 106 | 4.25 | 0.000554 | 131000 | 21 | 1.3e-10 | 1.4e-10 | 24 | 22 | 64 | 4.09 | 0.000296 | 72300 | 39 |  | B2 |
| 89 | 29.5 | 0.00418 | 142000 | 2.8 | 1.4e-10 | 1.3e-10 | 99 | 100 | 74 | 10.2 | 0.00168 | 165000 | 7 | IC50 [M], NFκB-luciferase, 15 pM hIL-36β [2]: 1.3e-10 M; Max Inhibition (%), NFκB-luciferase, 15 pM hIL-36β [2]: 100%; IC50 [M], NFκB-luciferase, 300 pM hIL-36γ [4]: 2e-10 M; IC50 [M], NFκB-luciferase, 500 pM hIL-36α [4]: 8.4e-11 M; IC50 [M], NFκB-luciferase, 600 pM hIL-36β [4]: 1.9e-10 M; Max Inhibition (%), NFκB-luciferase, 300 pM hIL-36γ [4]: 97%; Max Inhibition (%), NFκB-luciferase, 500 pM hIL-36α [4]: 97%; Max Inhibition (%), NFκB-luciferase, 600 pM hIL-36β [4]: 98% | B3 |
